The target of assay [1] is T1, mFz: Fz domain and C-terminal flanking sequence of mouse MuSK (D307 to T494) with C-terminal Avi- and … (mouse, UniProt Q61006 307-494, limits assumed, biotinylated in vitro using the BirA enzyme).
T1 construct: also called mouse Fz; not shown: Avi- and His6-tags
T1 sequence (looked up): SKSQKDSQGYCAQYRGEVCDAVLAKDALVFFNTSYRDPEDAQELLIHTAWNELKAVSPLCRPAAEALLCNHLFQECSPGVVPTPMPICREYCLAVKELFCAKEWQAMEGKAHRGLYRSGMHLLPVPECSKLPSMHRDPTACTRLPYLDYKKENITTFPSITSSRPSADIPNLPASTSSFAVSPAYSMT
Briefly: bead-binding titration, Fab format: antigen immobilized on streptavidin beads, MFI by flow cytometry, curve is the 1:1 fit.

Assay [2] deals with T2, hECD: full-length extracellular region of human MuSK (E22 to T495) with C-terminal Avi- and His6-tags (human, UniProt O15146 22-495, biotinylated in vitro using the BirA enzyme).
T2 construct: also called human ECD; not shown: Avi- and His6-tags
T2 sequence: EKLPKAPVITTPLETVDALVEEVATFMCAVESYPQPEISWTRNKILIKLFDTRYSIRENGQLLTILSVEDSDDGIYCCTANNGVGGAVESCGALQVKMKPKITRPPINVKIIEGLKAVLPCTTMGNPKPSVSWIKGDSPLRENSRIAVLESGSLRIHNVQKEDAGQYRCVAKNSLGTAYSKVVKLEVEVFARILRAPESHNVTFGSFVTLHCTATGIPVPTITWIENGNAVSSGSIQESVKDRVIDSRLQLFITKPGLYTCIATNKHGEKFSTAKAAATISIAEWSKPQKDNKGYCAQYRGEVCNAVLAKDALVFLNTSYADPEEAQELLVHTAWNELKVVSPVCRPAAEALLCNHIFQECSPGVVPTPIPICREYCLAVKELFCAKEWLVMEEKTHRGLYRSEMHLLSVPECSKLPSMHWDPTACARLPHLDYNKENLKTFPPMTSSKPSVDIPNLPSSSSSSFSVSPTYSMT
Described as above.

Assay [3] has as its target T3, mouse MuSK (mouse, UniProt Q61006 22-494, limits assumed).
T3 construct: Coated on ELISA plates or on the Biacore chip; also called full length mouse MuSK; mouse MuSK (in house produced in HEK293 cells)
T3 sequence (looked up): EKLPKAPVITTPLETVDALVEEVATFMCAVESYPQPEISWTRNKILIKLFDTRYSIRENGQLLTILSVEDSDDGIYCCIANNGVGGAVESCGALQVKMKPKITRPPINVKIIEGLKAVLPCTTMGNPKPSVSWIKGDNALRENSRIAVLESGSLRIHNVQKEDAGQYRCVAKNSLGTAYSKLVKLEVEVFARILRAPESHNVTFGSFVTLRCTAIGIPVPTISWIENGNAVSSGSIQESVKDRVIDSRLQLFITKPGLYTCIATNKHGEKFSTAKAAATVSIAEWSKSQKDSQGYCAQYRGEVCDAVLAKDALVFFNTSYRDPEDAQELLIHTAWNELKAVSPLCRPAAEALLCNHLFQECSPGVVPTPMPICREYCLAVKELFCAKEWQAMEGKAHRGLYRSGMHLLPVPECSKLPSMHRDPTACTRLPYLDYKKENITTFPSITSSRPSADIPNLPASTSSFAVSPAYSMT
Briefly: Biacore T200, off rate at pH 5.5 against pH 7.4. In outline: (§1)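 Surface plasmon resonance was run with both human and mouse MuSK immobilized on the sensor chip. Fab association was always performed at pH 7.4 before the dissociation phase. Kinetic parameters were calculated from the binding curves.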

Assay [4] addresses T4, human MuSK (human, UniProt O15146 24-495).
T4 construct: Recombinant protein coated on ELISA plates (R&D Systems cat. 10189-MK) or on the Biacore chip; also called human muscle-specific tyrosine protein kinase; full length human MuSK
T4 sequence: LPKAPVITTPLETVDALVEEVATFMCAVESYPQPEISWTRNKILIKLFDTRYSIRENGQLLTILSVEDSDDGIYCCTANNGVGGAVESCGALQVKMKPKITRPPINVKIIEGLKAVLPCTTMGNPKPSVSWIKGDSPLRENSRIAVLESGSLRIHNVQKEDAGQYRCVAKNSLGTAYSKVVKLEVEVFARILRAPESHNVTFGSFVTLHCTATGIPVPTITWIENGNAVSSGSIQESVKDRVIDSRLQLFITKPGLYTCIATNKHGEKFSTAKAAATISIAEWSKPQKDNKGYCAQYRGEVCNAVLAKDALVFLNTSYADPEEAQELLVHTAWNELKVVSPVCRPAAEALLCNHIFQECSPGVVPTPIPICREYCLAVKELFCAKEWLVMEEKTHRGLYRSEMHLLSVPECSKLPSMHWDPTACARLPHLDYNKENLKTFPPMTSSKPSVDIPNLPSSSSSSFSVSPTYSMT
The assay is described as follows: Biacore T200, off rate at pH 5.5 against pH 7.4. In short, it runs like this:
as §1

Assay [5] addresses T3, mouse MuSK. Briefly: Biacore T200, MuSK on chip (200RU), 22.2 nM Fab, dissociation pH 5.5. In short, it runs like this: as §1
The target in assay [6] is T4, human MuSK. Described as above. In short, it runs like this:
as §1

The target of assay [7] is T3, mouse MuSK. The assay is described as follows: Biacore T200, MuSK on chip (200RU), 22.2 nM Fab, dissociation pH 7.4. In short, it runs like this: as §1
Assay [8] concerns the target T4, human MuSK. The description is as above. In short, it runs like this:
as §1

Where a chain is given by its changes, count along the chain named.

B1: X2 Fab (Fab, V domains shown)
VH: EVQLVESGGGLVQPGGSLRLSCAASGFTVSSSSIHWVRQAPGKGLEWVASISSSYGSTSYADSVKGRFTISADTSKNTAYLQMNSLRAEDTAVYYCARSEGDRYVSGYMGMDYWGQGTLVTVSS
VL: DIQMTQSPSSLSASVGDRVTITCRASQSVSSAVAWYQQKPGKAPKLLIYSASSLYSGVPSRFSGSRSGTDFTLTISSLQPEDFATYYCQQSGVWLITFGQGTKVEIK
notes: Fab format
In the case of B1, the “EC50 (read off the curve)” value was roughly 0.5 nM in assay [1] and roughly 0.9 nM in assay [2]. Besides, the entries for the “Ratio pH 5.5/7.4 of off rate” value in the assay with mouse MuSK [3] and with human MuSK [4] were 1 and 0.6, respectively. Also, the koff was determined as 0.00051 s⁻¹ in the assay with mouse MuSK [5], 0.00034 s⁻¹ with human MuSK [6], 0.00053 s⁻¹ with mouse MuSK [7] and 0.00057 s⁻¹ with human MuSK [8].

B2: X3 Fab (Fab, V domains shown)
VH: EVQLVESGGGLVQPGGSLRLSCAASGFTISSSSIHWVRQAPGKGLEWVASISSSSGYTYYADSVKGRFTISADTSKNTAYLQMNSLRAEDTAVYYCARSWYEMWMSGYFGFDYWGQGTLVTVSS
VL: B1 VL with G92S, V93S, W94S
notes: Fab format
On to B2, for which the entries for the “EC50 (read off the curve)” value in assay [1] and in assay [2] were roughly 0.3 nM and roughly 0.2 nM, respectively. In addition, the “Ratio pH 5.5/7.4 of off rate” value in the assay with mouse MuSK [3] is 4.4; with human MuSK [4], 3.5. In addition, the koff came out at 0.0246 s⁻¹ in the assay with mouse MuSK [5], 0.00225 s⁻¹ with human MuSK [6], 0.00558 s⁻¹ in the assay with mouse MuSK [7] and 0.00063 s⁻¹ with human MuSK [8].

Values taken from patent US20230151091A1 (NEW YORK UNIVERSITY, published 2023).
